The values below come from patent US20120058906A1 (published 2012).

The target in assay [1] is T1, rHuman Notch-1/Fc Chimera, CF (R&D Systems Cat#3647-TK) (human, UniProt P46531 19-526).
T1 construct: Bought protein; Fc part of the bought chimera not given
Kind of assay: MSD ECL multi-spot assay, antigen spotted on plate, Fab 1.57 uM; blank spot 797.

Assay [2] addresses T2, rHuman Erythropoietin R/Fc Chimera, CF (R&D Systems Cat#963-ER) (human, UniProt P19235 25-250).
T2 construct: Bought protein; also called EPOR; EPO R/Fc; Fc part of the bought chimera not given
T2 sequence: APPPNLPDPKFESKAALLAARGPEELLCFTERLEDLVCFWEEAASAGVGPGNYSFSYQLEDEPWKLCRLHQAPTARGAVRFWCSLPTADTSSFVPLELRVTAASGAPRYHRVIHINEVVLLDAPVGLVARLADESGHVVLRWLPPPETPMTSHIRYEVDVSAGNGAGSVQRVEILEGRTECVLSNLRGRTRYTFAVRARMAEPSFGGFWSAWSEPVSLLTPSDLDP
The assay is described as above.

Assay [3] concerns the target T3, rHuman HGF R/c-MET/Fc Chimera, CF (R&D Systems Cat#358-MT/CF) (human, UniProt P08581 25-932).
T3 construct: Bought protein; also called HGF R/Fc; hepatocyte growth factor receptor; Fc part of the bought chimera not given
Described as above.

For assay [4], the target named is T4, Recombinant Human DLL4 (R&D Systems Cat#1506-D4/CF) (human, UniProt Q9NR61 27-524).
T4 construct: Bought protein; also called delta-like protein 4; rHuman DLL4
The description is as above.

The target in assay [5] is T5, rHuman ErbB2/Fc Chimera, CF (R&D Systems Cat#1129-ER) (human, UniProt P04626 23-652).
T5 construct: Bought protein; also called HER2/neu; human epidermal growth factor 2 receptor; Fc part of the bought chimera not given
The assay is described as above.

The target in assay [6] is T6, rHuman IGF-1 sR (IGF-1 sR), CF (R&D Systems Cat#391-GR) (human, UniProt P08069 31-932).
T6 construct: Bought soluble receptor; also called insulin-like growth factor-1 soluble receptor; IGF-R1
Described as above.

Assay [7] deals with T7, rHuman CD44/Fc Chimera, CF (R&D Systems Cat#3660-CD) (human, UniProt P16070 21-220).
T7 construct: Bought protein; Fc part of the bought chimera not given
Described as above.

In assay [8] the target is T1, rHuman Notch-1/Fc Chimera, CF (R&D …). Kind of assay: MSD ECL multi-spot assay, antigen spotted on plate, Fab 0.93 uM; blank spot 859.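 Also: blank spot per well as comparator with Hit at signal to blank ratio of 4 or more.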
Assay [9] deals with T2, rHuman Erythropoietin R/Fc Chimera, CF …. Described as above.
Assay [10] has as its target T8, rHuman P-Cadherin/Fc Chimera, CF (R&D Systems Cat#861-PC) (human, UniProt P22223 108-654).
T8 construct: Bought protein; also called CDH3; Fc part of the bought chimera not given
The description is as above.

Assay [11] has as its target T4, Recombinant Human DLL4 (R&D Systems …). Described as above.
The target in assay [12] is T5, rHuman ErbB2/Fc Chimera, CF (R&D …). The assay is described as above.
In assay [13] the target is T6, rHuman IGF-1 sR (IGF-1 sR), CF (R&D …). Described as above.
Assay [14] concerns the target T7, rHuman CD44/Fc Chimera, CF (R&D Systems …). The assay is described as above.

B1: Fab VH1-46_IGHD3-10*01_IGHJ4*01 & O1_IGKJ1*01 (Fab, V domains shown)
VH: QVQLVQSGAEVKKPGASVKVSCKASGYTFTSYYMHWVRQAPGQGLEWMGIINPSGGSTSYAQKFQGRVTMTRDTSTSTVYMELSSLRSEDTAVYYCAREYYYGSGSYYNDYFDYWGQGTLVTVSS
VL: DIVMTQTPLSLPVTPGEPASISCRSSQSLLDSDDGNTYLDWYLQKPGQSPQLLIYTLSYRASGVPDRFSGSGSGTDFTLKISRVEAEDVGVYYCMQRIEFPSWTFGQGTKVEIK
notes: Fab from E. coli; VH joined to the CH1 (Flag and His tags) of Plasmid A, VL to the kappa CL of Plasmid C
On to B1, for which the ECL signal is 1260 in assay [1]; 6390 in [2]; 1040 in [3]; 1500 in assay [4]; 904 in [5]; 985 in [6]. In assay [7], this molecule displayed an ECL signal of 836.

B2: Fab VH1-46_IGHD6-13*01_IGHJ4*01 & O1_IGKJ1*01 (Fab, V domains shown)
VH: QVQLVQSGAEVKKPGASVKVSCKASGYTFTSYYMHWVRQAPGQGLEWMGIINPSGGSTSYAQKFQGRVTMTRDTSTSTVYMELSSLRSEDTAVYYCAREGYSSSWYDYFDYWGQGTLVTVSS
VL: DIVMTQTPLSLPVTPGEPASISCRSSQSLLDSDDGNTYLDWYLQKPGQSPQLLIYTLSYRASGVPDRFSGSGSGTDFTLKISRVEAEDVGVYYCMQRIEFPSWTFGQGTKVEIK
notes: as for B1
Consider B2, for which the ECL signal in assay [8] came to 1920; in assay [9] it was 4240; in assay [10], 2420; in [11] it was 9630; in assay [12] it was 1610; in assay [13] it was 1790. Besides, the ECL signal in assay [14] was 1450.
